This data set can be described thus: protein stability index of a GFP-peptide fusion (GPS, HEK-293T) (PSI 1-6); higher = more stable. The following applies: c terminus: a fixed tail appended.

± gives the standard deviation.
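Also: 24-mer peptide tiles fused after GFP, lentivirally expressed, FACS-sorted into six equal bins by GFP/DsRed ratio, decoded by Illumina sequencing, PSI is the read-weighted mean bin number.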

As to HVPLQRLSLLVHNVSVMHKSLDNM [FBXO33], the protein stability index reads like this: (treatment: DMSO) 2.01 ± 0.22; (treatment: MLN4924 1 uM, 8 h) 2.3 ± 0.12.

Turning to HVPTVWAIDQYRVCQEVLERSRDV [RHOBTB1], the protein stability index is, setting by setting: (treatment: DMSO) 2.83 ± 0.22; (treatment: MLN4924 1 uM, 8 h) 3.08 ± 0.3.

As for HVTVENVQELLPAACLLQLKGVKQ [KLHL12], the protein stability index is, setting by setting: (treatment: DMSO) 2.96 ± 0.33; (treatment: MLN4924 1 uM, 8 h) 3.15 ± 0.11.

On to HWDGYSKGVNRKLGRTGLYPSYKV [FUT8], for which the protein stability index reads like this: (treatment: DMSO) 2.5 ± 0.32; (treatment: MLN4924 1 uM, 8 h) 2.53 ± 0.18.

Regarding IAQCQDSPTSGKFRRGSGSACSLL [MCOLN1], the protein stability index is 3.4 ± 0.2 (treatment: DMSO) and 3.63 ± 0.2 (treatment: MLN4924 1 uM, 8 h).

As to IATATEIAYYSYIYSVVDLGMYQK [SLC19A2], the protein stability index by setting is: (treatment: DMSO) 3.05 ± 0.33; (treatment: MLN4924 1 uM, 8 h) 2.94 ± 0.51.

On to IDKSMTVVLTFITPMLNPLIYTLK [OR4A15], for which the protein stability index turned out to be 3.67 ± 0.16 (treatment: DMSO) and 2.8 ± 1 (treatment: MLN4924 1 uM, 8 h).

In the case of IDLATWNFQFLPQVNGHPDPFDEI [PTPN9], the protein stability index by setting is: (treatment: DMSO) 2.43 ± 0.22; (treatment: MLN4924 1 uM, 8 h) 2.54 ± 0.35.

In the case of IDNAADLLIFGKELSAIGSDTTPL [SNX8], the protein stability index by setting is: (treatment: DMSO) 3.22 ± 0.12; (treatment: MLN4924 1 uM, 8 h) 3.18 ± 0.48.

On to IDRNLREDGEKAAREVKLLLLGAG [GNAI1], for which the protein stability index by setting is: (treatment: DMSO) 3.67 ± 0.23; (treatment: MLN4924 1 uM, 8 h) 3.58 ± 0.096.

Consider IDYKTTTILLDGQRVKLKLWDTSG [RAB40A], for which the protein stability index was determined as 2.27 ± 0.07 (treatment: DMSO) and 2.36 ± 0.2 (treatment: MLN4924 1 uM, 8 h).

Take IEADRRRAQLHVQGLLHEAGSTDD [SPNS1]: the protein stability index was 4.87 ± 0.18 (treatment: DMSO) and 5.1 ± 0.33 (treatment: MLN4924 1 uM, 8 h).

As for IFSIVFVFFVCFVPYHIARIPYTK [P2RY14], the protein stability index (treatment: DMSO) is 3.1 ± 0.21 and the protein stability index (treatment: MLN4924 1 uM, 8 h) was 3 ± 0.49.

As to IIDSSRSVNTHDYAKVKEFIVDIL [MATN2], the protein stability index (treatment: DMSO) is 2.23 ± 0.2 and the protein stability index (treatment: MLN4924 1 uM, 8 h) turned out to be 2.37 ± 0.22.

As to IIELLASDAGSPSLHKHLTIRLNI [PCDHGC5], the protein stability index runs as follows: (treatment: DMSO) 3.12 ± 0.48; (treatment: MLN4924 1 uM, 8 h) 3.15 ± 0.6.

IISGVSKVPIAQDELALSLGYAAS [C2CD2L]: the protein stability index runs as follows: (treatment: DMSO) 2.58 ± 0.3; (treatment: MLN4924 1 uM, 8 h) 2.55 ± 0.32.

Consider IKRAEDYGPVEVISHWHPNITINI [CLPTM1], for which the protein stability index runs as follows: (treatment: DMSO) 3.11 ± 0.39; (treatment: MLN4924 1 uM, 8 h) 2.68 ± 0.14.

With IKSSLKDEYQYSFWDLFRSKDNMR [SLC2A12], the protein stability index is 2.39 ± 0.23 (treatment: DMSO) and 2.3 ± 0.21 (treatment: MLN4924 1 uM, 8 h).

Turning to ILFVNSEFETLYNEHKSCEEKSVK [CLK3], the protein stability index worked out at 2.74 ± 0.25 (treatment: DMSO) and 3.05 ± 0.3 (treatment: MLN4924 1 uM, 8 h).

For ILIALVGATPSYHWDLAELLPNQS [SLC22A15], the protein stability index stood at 2.85 ± 0.43 (treatment: DMSO) and 2.9 ± 0.75 (treatment: MLN4924 1 uM, 8 h).

On to ILVQTPESESPQSHRAAGSGVSDY [TRIM9], for which the protein stability index is, setting by setting: (treatment: DMSO) 4.49 ± 0.37; (treatment: MLN4924 1 uM, 8 h) 4.49 ± 0.21.

As for INKIAGHPLAQNERCLHMFLQEEA [SNX12], the protein stability index runs as follows: (treatment: DMSO) 3.07 ± 0.12; (treatment: MLN4924 1 uM, 8 h) 3.3 ± 0.17.

For the sequence IPKSSDPEMRWNKGTILKASVDYI [TFE3], the protein stability index turned out to be 2.79 ± 0.32 (treatment: DMSO) and 3.03 ± 0.26 (treatment: MLN4924 1 uM, 8 h).

On to IPPKEFHFRHPKRSVSLSMRKSGA [BNIP3L], for which the protein stability index turned out to be 3.37 ± 0.34 (treatment: DMSO) and 3.77 ± 0.34 (treatment: MLN4924 1 uM, 8 h).

Take IRAAKGLDQALKEGGKLPPPPPPS [ZC2HC1A]: the protein stability index (treatment: DMSO) came to 4.35 ± 0.24 and the protein stability index (treatment: MLN4924 1 uM, 8 h) is 4.48 ± 0.4.

Take IRLVDDAFGKICHMVSDGSWVVRV [INTS4]: the protein stability index runs as follows: (treatment: DMSO) 3.07 ± 0.46; (treatment: MLN4924 1 uM, 8 h) 2.98 ± 0.54.

Regarding ISHQQCWASTSPGTDLPLSEIPRG [TRIM15], the protein stability index worked out at 3.51 ± 0.21 (treatment: DMSO) and 3.63 ± 0.53 (treatment: MLN4924 1 uM, 8 h).

ISLEERRAQLPKYQRNLPRPGQAP [ZNF207]: the protein stability index is, setting by setting: (treatment: DMSO) 3.41 ± 0.12; (treatment: MLN4924 1 uM, 8 h) 3.67 ± 0.32.

On to ISPGRVYEYTSCTTFSTTSGYMEG [FBXO3], for which the protein stability index stood at 2.78 ± 0.22 (treatment: DMSO) and 2.69 ± 0.36 (treatment: MLN4924 1 uM, 8 h).

Turning to ITGAYDTIKHPGGAGAEESELQAY [MCOLN1], the protein stability index reads like this: (treatment: DMSO) 4.84 ± 0.19; (treatment: MLN4924 1 uM, 8 h) 5.02 ± 0.19.

In the case of ITRESHTHRDRPSQQQPLRNQVVS [CSNK1G1], the protein stability index came out at 4.49 ± 0.21 (treatment: DMSO) and 4.37 ± 0.23 (treatment: MLN4924 1 uM, 8 h).

As for IVNSTEESDDAFDTVTIPVPSEEP [IQUB], the protein stability index by setting is: (treatment: DMSO) 5.5 ± 0.25; (treatment: MLN4924 1 uM, 8 h) 5.55 ± 0.21.

Consider IYAYDAKIEIQTLTGLFKGDKCHS [CASP6], for which the protein stability index runs as follows: (treatment: DMSO) 2.14 ± 0.7; (treatment: MLN4924 1 uM, 8 h) 2.26 ± 0.23.

For the sequence IYTHFTCATDTKNVQFVFDAVTDV [GNAI1], the protein stability index by setting is: (treatment: DMSO) 2.55 ± 0.46; (treatment: MLN4924 1 uM, 8 h) 3.28 ± 1.5.

For the sequence KANSPLKGHERTVQYLQHLGTENL [VPS39], the protein stability index was determined as 3.85 ± 0.3 (treatment: DMSO) and 3.71 ± 0.31 (treatment: MLN4924 1 uM, 8 h).

For the sequence KAPDIECVLRCSVLEIEQSMNRVK [FEM1B], the protein stability index stood at 2.3 ± 0.41 (treatment: DMSO) and 2.55 ± 0.51 (treatment: MLN4924 1 uM, 8 h).

Regarding KCFSCNSNLHRHQRTHTGEKPYKC [ZNF263], the protein stability index turned out to be 3.5 ± 0.1 (treatment: DMSO) and 3.45 ± 0.15 (treatment: MLN4924 1 uM, 8 h).

As for KCGSGARGGDGEVASAPLQPPVPS [TRADD], the protein stability index is, setting by setting: (treatment: DMSO) 4.79 ± 0.24; (treatment: MLN4924 1 uM, 8 h) 4.78 ± 0.36.

Consider KDLVMYSKCQRLFRSPSMPCSVIR [CDC25B], for which the protein stability index is 2.2 ± 0.18 (treatment: DMSO) and 2.73 ± 0.34 (treatment: MLN4924 1 uM, 8 h).

KDVLRYGEEQLKTHKKCKEEVVST [FCHO1]: the protein stability index is, setting by setting: (treatment: DMSO) 4.85 ± 0.13; (treatment: MLN4924 1 uM, 8 h) 4.78 ± 0.19.

As for KEAKTKYPNYEFISDNSISWSAGL [FUT8], the protein stability index runs as follows: (treatment: DMSO) 2.52 ± 0.25; (treatment: MLN4924 1 uM, 8 h) 2.95 ± 0.23.

Take KEKEQENERKVAQLAEENERLKQE [DDIT3]: the protein stability index is 5.52 ± 0.1 (treatment: DMSO) and 5.55 ± 0.15 (treatment: MLN4924 1 uM, 8 h).

As to KENPECPVLKRSSESMENINSGYE [KMT2E], the protein stability index (treatment: DMSO) was determined as 5.13 ± 0.2 and the protein stability index (treatment: MLN4924 1 uM, 8 h) amounted to 5.01 ± 0.23.

KERKKREERERKRRKEEEVQQQKL [FAF2]: the protein stability index worked out at 5.09 ± 0.46 (treatment: DMSO) and 4.91 ± 0.31 (treatment: MLN4924 1 uM, 8 h).

On to KESLETPSNGRIDIKQLIAKKIKL [SOAT1], for which the protein stability index was 2.55 ± 0.14 (treatment: DMSO) and 2.94 ± 0.27 (treatment: MLN4924 1 uM, 8 h).

Take KFYPPDPAQLSEDITRYYLCLQLR [EPB41L3]: the protein stability index was 2.49 ± 0.048 (treatment: DMSO) and 2.48 ± 0.87 (treatment: MLN4924 1 uM, 8 h).

As to KIKAIMALVAAILLLVIIILIVMK [VAMP4], the protein stability index is, setting by setting: (treatment: DMSO) 2.47 ± 0.51; (treatment: MLN4924 1 uM, 8 h) 2.41 ± 0.8.

As to KKAIKDLGISPSTCSFNPGVIVAN [GLT8D2], the protein stability index (treatment: DMSO) was 2.95 ± 0.11 and the protein stability index (treatment: MLN4924 1 uM, 8 h) came out at 2.87 ± 0.43.

In turn, KKEESGRERKKNWGGQEDREPAGR [PBXIP1] showed a protein stability index (treatment: DMSO) of 5.16 ± 0.14 and a protein stability index (treatment: MLN4924 1 uM, 8 h) of 5.33 ± 0.26.

Regarding KKKEGGALRAQRASSNVFSNFEQT [MYL5], the protein stability index was found to be 4.42 ± 0.45 (treatment: DMSO) and 4.47 ± 0.15 (treatment: MLN4924 1 uM, 8 h).

Turning to KKLKKDDKKKELQELNELFKPVVA [ZC3H15], the protein stability index by setting is: (treatment: DMSO) 4.18 ± 0.48; (treatment: MLN4924 1 uM, 8 h) 4.15 ± 0.34.

As for KKLRLVFKSLDKKNDGRIDAQEIM [SLC25A25], the protein stability index is, setting by setting: (treatment: DMSO) 2.57 ± 0.23; (treatment: MLN4924 1 uM, 8 h) 2.87 ± 0.31.

(Values after the supplement of paper PMC10567573.)
